Measurements reported in patent US20230312723A1, “METHODS AND COMPOSITIONS FOR NON-SMALL CELL LUNG CANCER IMMUNOTHERAPY” (Genentech, Inc., priority 2020, published 2023).
Marks after values point to notes of the source that are not given here.

Legend:
[1] = system: patients with Stage IV NSCLC; conditions: in vivo
[2] = system: patients with Stage IV NSCLC; test: Phase III study: safety, adverse events graded according to NCI CTCAE v4.0; conditions: All treated patients; Chemo N = 263, Atezo N = 286

Substance: atezolizumab
- AESI Adrenal insufficiency Gr3-4, patients with event [1]: 0
- AESI Adrenal insufficiency, patients with event [1]: 2
- AESI Adrenal insufficiency, percent of patients [1]: (0.7%)
- AESI Colitis Gr3-4, patients with event [1]: 2
- AESI Colitis Gr3-4, percent of patients [1]: (0.7%)
- AESI Colitis, patients with event [1]: 3
- AESI Colitis, percent of patients [1]: (1.0%)
- AESI Diabetes Mellitus Gr3-4, patients with event [1]: 1
- AESI Diabetes Mellitus Gr3-4, percent of patients [1]: (0.3%)
- AESI Diabetes Mellitus, patients with event [1]: 2
- AESI Diabetes Mellitus, percent of patients [1]: (0.7%)
- AESI Hepatitis Gr3-4, patients with event [1]: 12
- AESI Hepatitis Gr3-4, percent of patients [1]: (4.2%)*
- AESI Hepatitis, patients with event [1]: 46
- AESI Hepatitis, percent of patients [1]: (16.1%)
- AESI Hyperthyroidism Gr3-4, patients with event [1]: 0
- AESI Hyperthyroidism, patients with event [1]: 13
- AESI Hyperthyroidism, percent of patients [1]: (4.5%)
- AESI Hypothyroidism Gr3-4, patients with event [1]: 0
- AESI Hypothyroidism, patients with event [1]: 27
- AESI Hypothyroidism, percent of patients [1]: (9.4%)
- AESI Infusion-Related Reactions Gr3-4, patients with event [1]: 0
- AESI Infusion-Related Reactions, patients with event [1]: 4
- AESI Infusion-Related Reactions, percent of patients [1]: (1.4%)
- AESI Myocarditis Gr3-4, patients with event [1]: 1
- AESI Myocarditis Gr3-4, percent of patients [1]: (0.3%)
- AESI Myocarditis, patients with event [1]: 1
- AESI Myocarditis, percent of patients [1]: (0.3%)
- AESI Myositis Gr3-4, patients with event [1]: 0
- AESI Myositis, patients with event [1]: 1
- AESI Myositis, percent of patients [1]: (0.3%)
- AESI Nephritis Gr3-4, patients with event [1]: 0
- AESI Nephritis, patients with event [1]: 1
- AESI Nephritis, percent of patients [1]: (0.3%)
- AESI Pneumonitis Gr3-4, patients with event [1]: 2
- AESI Pneumonitis Gr3-4, percent of patients [1]: (0.7%)
- AESI Pneumonitis, patients with event [1]: 11
- AESI Pneumonitis, percent of patients [1]: (3.8%)
- AESI Rash Gr3-4, patients with event [1]: 3
- AESI Rash Gr3-4, percent of patients [1]: (1.0%)
- AESI Rash, patients with event [1]: 44
- AESI Rash, percent of patients [1]: (15.4%)
- AESI Severe Cutaneous Adverse Reaction Gr3-4, patients with event [1]: 0
- AESI Severe Cutaneous Adverse Reaction, patients with event [1]: 2
- AESI Severe Cutaneous Adverse Reaction, percent of patients [1]: (0.7%)
- AESI Vasculitis Gr3-4, patients with event [1]: 1
- AESI Vasculitis Gr3-4, percent of patients [1]: (0.3%)
- AESI Vasculitis, patients with event [1]: 1
- AESI Vasculitis, percent of patients [1]: (0.3%)
- Immune-mediated Adrenal insufficiency requiring systemic corticosteroids, % [1]: (0.3) %
- Immune-mediated Diabetes mellitus requiring systemic corticosteroids, % [1]: (0.3) %
- Immune-mediated Hypothyroidism requiring systemic corticosteroids, % [1]: (0.3) %
- Immune-mediated Infusion-related reaction requiring systemic corticosteroids, % [1]: (0.3) %
- Immune-mediated Nephritis requiring systemic corticosteroids, % [1]: (0.3) %
- AE leading to any treatment withdrawal, % of patients [2]: (6.3%)
- AE leading to any treatment withdrawal, number of patients [2]: 18
- All Deaths, % of patients [2]: 43.7%
- All Deaths, number of patients [2]: 125
- All Grade AE, any cause, % of patients [2]: (90.2%)
- All Grade AE, any cause, number of patients [2]: 258
- Cause of death: Adverse Event, % of patients [2]: 3.8%
- Cause of death: Adverse Event, number of patients [2]: 11
- Cause of death: Other, including deaths collected by public records, % of patients [2]: 3.8%
- Cause of death: Other, including deaths collected by public records, number of patients [2]: 11
- Cause of death: Progressive disease, % of patients [2]: 36.0%
- Cause of death: Progressive disease, number of patients [2]: 103
- Grade 3-4 AE, % of patients [2]: (31.8%)
- Grade 3-4 AE, number of patients [2]: 91
- Grade 5 AE, % of patients [2]: (3.8%)
- Grade 5 AE, number of patients [2]: 11
